Data: paper PMC9482650, “Quantitative fragmentomics allow affinity mapping of interactomes” (Nature Communications, 2022)
Blank lines part the entries; values can stand above or below the binder they belong to.

Tests used:
Assay in all cases: holdup assay
Parameters in all cases: key: below the threshold = too weak to quantify, mostly under pKd 3.1 to 4
ARHGAP21, Q5T5U3 = biological target: T1, ARHGAP21, Q5T5U3
T1 sequence (Q5T5U3 45-169, limits assumed, looked up): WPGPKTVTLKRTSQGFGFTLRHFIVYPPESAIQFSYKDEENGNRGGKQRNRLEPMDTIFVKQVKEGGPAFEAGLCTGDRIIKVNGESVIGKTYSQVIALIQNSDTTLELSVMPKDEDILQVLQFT

PICK1, Q9NRD5 = biological target: PICK1, Q9NRD5
FRMPD4, Q14CM0 = biological target: FRMPD4, Q14CM0
SYNJ2BP, P57105 = biological target: T2, SYNJ2BP, P57105
T2 sequence (P57105 8-110, limits assumed, looked up): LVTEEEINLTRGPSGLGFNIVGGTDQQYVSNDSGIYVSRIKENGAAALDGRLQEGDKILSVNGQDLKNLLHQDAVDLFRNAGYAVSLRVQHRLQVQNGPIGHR

LIN7A, O14910 = biological target: T3, LIN7A, O14910
T3 sequence (O14910 103-200, limits assumed, looked up): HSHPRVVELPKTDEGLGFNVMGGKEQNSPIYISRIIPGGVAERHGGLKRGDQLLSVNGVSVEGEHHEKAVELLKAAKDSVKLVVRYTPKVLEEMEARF

MAGI3_2, Q5TCQ9 = biological target: MAGI3_2, Q5TCQ9
TJP1_2, Q07157 = biological target: TJP1_2, Q07157
Inadl_10, Q8NI35 = biological target: Inadl_10, Q8NI35
GRIP2_3, Q9C0E4 = biological target: GRIP2_3, Q9C0E4
SCRIB_2, Q14160 = biological target: SCRIB_2, Q14160
IL16_3, Q14005 = biological target: IL16_3, Q14005
MAGI2_3, Q86UL8 = biological target: MAGI2_3, Q86UL8
LNX1_2, Q8TBB1 = biological target: LNX1_2, Q8TBB1
Inadl_5, Q8NI35 = biological target: Inadl_5, Q8NI35
GRIP1_7, Q9Y3R0 = biological target: T4, GRIP1_7, Q9Y3R0
T4 sequence (Q9Y3R0 999-1096, limits assumed, looked up): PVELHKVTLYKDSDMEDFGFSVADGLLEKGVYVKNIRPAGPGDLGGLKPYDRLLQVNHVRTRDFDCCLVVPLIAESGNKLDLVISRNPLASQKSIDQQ

TX1BP3, O14907 = biological target: T5, TX1BP3, O14907
T5 sequence (O14907 10-122, limits assumed, looked up): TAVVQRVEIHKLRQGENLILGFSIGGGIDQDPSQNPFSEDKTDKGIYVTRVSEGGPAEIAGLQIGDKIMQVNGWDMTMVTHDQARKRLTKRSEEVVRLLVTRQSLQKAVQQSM

Inadl_8, Q8NI35 = biological target: Inadl_8, Q8NI35
Inadl_2, Q8NI35 = biological target: Inadl_2, Q8NI35
GRID2IP_2, A4D2P6 = biological target: GRID2IP_2, A4D2P6
DFNB31_2, Q9P202 = biological target: T6, DFNB31_2, Q9P202
T6 sequence (Q9P202 274-371, limits assumed, looked up): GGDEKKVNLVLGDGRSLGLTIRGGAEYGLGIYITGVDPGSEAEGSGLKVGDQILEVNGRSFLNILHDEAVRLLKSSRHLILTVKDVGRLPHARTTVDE

MAGI2_5, Q86UL8 = biological target: MAGI2_5, Q86UL8
DLG2_2, Q15700 = biological target: DLG2_2, Q15700
FRMPD2_1, Q68DX3 = biological target: FRMPD2_1, Q68DX3
DLG5_1, Q8TDM6 = biological target: DLG5_1, Q8TDM6
GORASP1, Q9BQQ3 = biological target: GORASP1, Q9BQQ3
DLG4_3, P78352 = biological target: DLG4_3, P78352
HTRA1, Q92743 = biological target: HTRA1, Q92743
HTRA3, P83110 = biological target: T7, HTRA3, P83110
T7 sequence (P83110 354-453, limits assumed, looked up): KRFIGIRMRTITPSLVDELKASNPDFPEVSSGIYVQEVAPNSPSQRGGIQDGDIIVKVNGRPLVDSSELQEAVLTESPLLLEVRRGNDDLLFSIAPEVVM

PDZD2_2, O15018 = biological target: T8, PDZD2_2, O15018
T8 sequence (O15018 329-429, limits assumed, looked up): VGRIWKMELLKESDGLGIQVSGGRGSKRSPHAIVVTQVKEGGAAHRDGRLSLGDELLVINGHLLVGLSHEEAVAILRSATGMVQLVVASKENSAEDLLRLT

[1] = modified: phospho on T at position -2 from the C-terminal residue
[2] = modified: phospho on T at position -1 from the C-terminal residue
[3] = plain residues with an end cap or a label only (N-terminal biotin on a linker: ado-ado)

Sequence of LNX1_2, Q8TBB1 (Q8TBB1 371-470): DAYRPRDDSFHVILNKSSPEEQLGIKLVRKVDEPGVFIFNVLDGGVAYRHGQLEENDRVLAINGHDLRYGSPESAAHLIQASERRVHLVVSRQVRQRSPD
Sequence of FRMPD4, Q14CM0 (Q14CM0 67-160): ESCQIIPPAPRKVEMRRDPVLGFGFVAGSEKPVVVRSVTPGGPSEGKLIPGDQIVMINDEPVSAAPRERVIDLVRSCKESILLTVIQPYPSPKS
Sequence of MAGI2_3, Q86UL8 (Q86UL8 600-682): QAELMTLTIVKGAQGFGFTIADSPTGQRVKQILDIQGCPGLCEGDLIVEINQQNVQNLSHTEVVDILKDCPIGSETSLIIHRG
Sequence of TJP1_2, Q07157 (Q07157 181-274): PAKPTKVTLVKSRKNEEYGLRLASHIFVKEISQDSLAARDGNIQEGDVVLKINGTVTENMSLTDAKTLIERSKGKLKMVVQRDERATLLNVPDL
Sequence of MAGI2_5, Q86UL8 (Q86UL8 915-1017): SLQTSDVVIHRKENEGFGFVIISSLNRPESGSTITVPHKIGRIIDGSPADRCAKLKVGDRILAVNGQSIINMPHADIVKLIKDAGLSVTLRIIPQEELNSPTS
Sequence of MAGI3_2, Q5TCQ9 (Q5TCQ9 398-503): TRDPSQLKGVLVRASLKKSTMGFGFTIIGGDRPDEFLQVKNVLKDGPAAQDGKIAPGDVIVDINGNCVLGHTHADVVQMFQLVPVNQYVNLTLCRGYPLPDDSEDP
Sequence of PICK1, Q9NRD5 (Q9NRD5 17-115): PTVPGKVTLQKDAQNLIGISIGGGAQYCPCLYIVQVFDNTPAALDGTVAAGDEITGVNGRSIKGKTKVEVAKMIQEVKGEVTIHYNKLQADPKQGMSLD
Sequence of HTRA1, Q92743 (Q92743 360-477): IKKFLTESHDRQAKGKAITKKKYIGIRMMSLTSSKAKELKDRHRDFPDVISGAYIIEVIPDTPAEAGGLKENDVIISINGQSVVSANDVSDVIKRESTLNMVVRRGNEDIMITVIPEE
Sequence of IL16_3, Q14005 (Q14005 1107-1207): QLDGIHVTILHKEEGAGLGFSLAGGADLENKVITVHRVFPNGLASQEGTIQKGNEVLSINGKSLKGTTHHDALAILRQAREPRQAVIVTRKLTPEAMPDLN
Sequence of DLG2_2, Q15700 (Q15700 189-283): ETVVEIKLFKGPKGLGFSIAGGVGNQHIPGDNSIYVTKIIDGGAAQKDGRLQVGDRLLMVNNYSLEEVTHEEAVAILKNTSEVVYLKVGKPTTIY
Sequence of Inadl_8, Q8NI35 (Q8NI35 1425-1530): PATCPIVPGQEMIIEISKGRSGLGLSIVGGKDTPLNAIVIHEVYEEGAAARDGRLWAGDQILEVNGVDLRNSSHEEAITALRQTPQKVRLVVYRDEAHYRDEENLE
Sequence of SCRIB_2, Q14160 (Q14160 857-960): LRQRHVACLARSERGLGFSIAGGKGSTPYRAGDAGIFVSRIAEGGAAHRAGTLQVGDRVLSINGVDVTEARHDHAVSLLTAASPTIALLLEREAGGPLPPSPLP
Sequence of Inadl_5, Q8NI35 (Q8NI35 673-780): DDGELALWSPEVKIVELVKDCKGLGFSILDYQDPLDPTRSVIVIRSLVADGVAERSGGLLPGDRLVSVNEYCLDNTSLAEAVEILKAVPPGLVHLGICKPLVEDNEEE
Sequence of GORASP1, Q9BQQ3 (Q9BQQ3 1-208): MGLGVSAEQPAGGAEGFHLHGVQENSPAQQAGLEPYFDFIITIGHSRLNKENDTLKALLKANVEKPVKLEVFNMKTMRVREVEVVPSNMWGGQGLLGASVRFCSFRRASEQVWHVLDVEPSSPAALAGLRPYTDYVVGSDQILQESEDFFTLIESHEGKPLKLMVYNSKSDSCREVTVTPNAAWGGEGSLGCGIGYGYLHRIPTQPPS
Sequence of Inadl_10, Q8NI35 (Q8NI35 1673-1763): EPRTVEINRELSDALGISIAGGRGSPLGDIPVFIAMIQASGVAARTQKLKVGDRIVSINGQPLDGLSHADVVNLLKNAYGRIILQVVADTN
Sequence of DLG5_1, Q8TDM6 (Q8TDM6 617-713): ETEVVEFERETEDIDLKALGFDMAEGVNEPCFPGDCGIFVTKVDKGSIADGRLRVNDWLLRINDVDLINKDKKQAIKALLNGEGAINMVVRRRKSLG
Sequence of FRMPD2_1, Q68DX3 (Q68DX3 770-861): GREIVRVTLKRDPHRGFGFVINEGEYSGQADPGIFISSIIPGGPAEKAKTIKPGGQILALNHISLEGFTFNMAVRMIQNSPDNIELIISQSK
Sequence of DLG4_3, P78352 (P78352 306-403): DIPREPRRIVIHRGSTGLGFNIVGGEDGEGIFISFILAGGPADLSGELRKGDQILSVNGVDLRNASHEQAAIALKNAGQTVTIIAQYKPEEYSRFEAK
Sequence of Inadl_2, Q8NI35 (Q8NI35 238-335): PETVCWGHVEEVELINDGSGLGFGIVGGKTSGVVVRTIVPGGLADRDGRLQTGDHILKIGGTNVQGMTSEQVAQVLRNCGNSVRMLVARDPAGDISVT
Sequence of GRID2IP_2, A4D2P6 (A4D2P6 272-370): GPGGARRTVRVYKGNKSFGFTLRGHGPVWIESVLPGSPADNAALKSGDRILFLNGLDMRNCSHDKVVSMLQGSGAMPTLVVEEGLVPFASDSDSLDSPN
Sequence of GRIP2_3, Q9C0E4 (Q9C0E4 238-339): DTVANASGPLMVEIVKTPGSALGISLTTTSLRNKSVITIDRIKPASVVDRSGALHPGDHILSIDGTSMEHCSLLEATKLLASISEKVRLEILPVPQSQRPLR

pKd (ARHGAP21, Q5T5U3; [1]): below the threshold
pKd (PICK1, Q9NRD5; [1]): below the threshold
pKd (FRMPD4, Q14CM0; [1]): 3.48
pKd (SYNJ2BP, P57105; [1]): below the threshold
pKd (LIN7A, O14910; [1]): below the threshold
pKd (MAGI3_2, Q5TCQ9; [1]): below the threshold
pKd (TJP1_2, Q07157; [1]): below the threshold
pKd (Inadl_10, Q8NI35; [1]): below the threshold
pKd (GRIP2_3, Q9C0E4; [1]): below the threshold
pKd (SCRIB_2, Q14160; [1]): below the threshold
pKd (IL16_3, Q14005; [1]): below the threshold
pKd (MAGI2_3, Q86UL8; [1]): below the threshold
pKd (LNX1_2, Q8TBB1; [1]): below the threshold
pKd (Inadl_5, Q8NI35; [1]): below the threshold
pKd (GRIP1_7, Q9Y3R0; [1]): 3.63
pKd (TX1BP3, O14907; [1]): below the threshold
pKd (Inadl_8, Q8NI35; [1]): below the threshold
pKd (Inadl_2, Q8NI35; [1]): below the threshold
pKd (GRID2IP_2, A4D2P6; [1]): below the threshold
pKd (DFNB31_2, Q9P202; [1]): below the threshold
pKd (MAGI2_5, Q86UL8; [1]): below the threshold
pKd (DLG2_2, Q15700; [1]): below the threshold
pKd (FRMPD2_1, Q68DX3; [1]): below the threshold
pKd (DLG5_1, Q8TDM6; [1]): below the threshold
pKd (GORASP1, Q9BQQ3; [1]): 3.75
pKd (DLG4_3, P78352; [1]): below the threshold
pKd (HTRA1, Q92743; [1]): 3.65
pKd (HTRA3, P83110; [1]): below the threshold
pKd (PDZD2_2, O15018; [1]): below the threshold
Binder: RRVRKLPSTTL [RPS6KA1_-2P, Q15418]

pKd (ARHGAP21, Q5T5U3; [2]): below the threshold
pKd (PICK1, Q9NRD5; [2]): 3.49
pKd (FRMPD4, Q14CM0; [2]): 3.62
pKd (SYNJ2BP, P57105; [2]): 4.48
pKd (LIN7A, O14910; [2]): below the threshold
pKd (MAGI3_2, Q5TCQ9; [2]): 3.94
pKd (TJP1_2, Q07157; [2]): below the threshold
pKd (Inadl_10, Q8NI35; [2]): 3.54
pKd (GRIP2_3, Q9C0E4; [2]): below the threshold
pKd (SCRIB_2, Q14160; [2]): 3.61
pKd (IL16_3, Q14005; [2]): below the threshold
pKd (MAGI2_3, Q86UL8; [2]): below the threshold
pKd (LNX1_2, Q8TBB1; [2]): below the threshold
pKd (Inadl_5, Q8NI35; [2]): below the threshold
pKd (GRIP1_7, Q9Y3R0; [2]): 3.48
pKd (TX1BP3, O14907; [2]): 3.87
pKd (Inadl_8, Q8NI35; [2]): 3.57
pKd (Inadl_2, Q8NI35; [2]): 3.45
pKd (GRID2IP_2, A4D2P6; [2]): 4.22
pKd (DFNB31_2, Q9P202; [2]): below the threshold
pKd (MAGI2_5, Q86UL8; [2]): 3.56
pKd (DLG2_2, Q15700; [2]): 3.83
pKd (FRMPD2_1, Q68DX3; [2]): 3.33
pKd (DLG5_1, Q8TDM6; [2]): below the threshold
pKd (GORASP1, Q9BQQ3; [2]): 3.6
pKd (DLG4_3, P78352; [2]): 3.49
pKd (HTRA1, Q92743; [2]): 4.7
pKd (HTRA3, P83110; [2]): 3.34
pKd (PDZD2_2, O15018; [2]): 4.04
Binder: RRVRKLPSTTL [RPS6KA1_-1P, Q15418]

pKd (ARHGAP21, Q5T5U3; [3]): 4.16
pKd (PICK1, Q9NRD5; [3]): below the threshold
pKd (FRMPD4, Q14CM0; [3]): 3.93
pKd (SYNJ2BP, P57105; [3]): below the threshold
pKd (LIN7A, O14910; [3]): below the threshold
pKd (MAGI3_2, Q5TCQ9; [3]): below the threshold
pKd (TJP1_2, Q07157; [3]): below the threshold
pKd (Inadl_10, Q8NI35; [3]): below the threshold
pKd (GRIP2_3, Q9C0E4; [3]): below the threshold
pKd (SCRIB_2, Q14160; [3]): below the threshold
pKd (IL16_3, Q14005; [3]): below the threshold
pKd (MAGI2_3, Q86UL8; [3]): below the threshold
pKd (LNX1_2, Q8TBB1; [3]): 3.75
pKd (Inadl_5, Q8NI35; [3]): below the threshold
pKd (GRIP1_7, Q9Y3R0; [3]): below the threshold
pKd (TX1BP3, O14907; [3]): below the threshold
pKd (Inadl_8, Q8NI35; [3]): below the threshold
pKd (Inadl_2, Q8NI35; [3]): 3.51
pKd (GRID2IP_2, A4D2P6; [3]): below the threshold
pKd (DFNB31_2, Q9P202; [3]): below the threshold
pKd (MAGI2_5, Q86UL8; [3]): below the threshold
pKd (DLG2_2, Q15700; [3]): below the threshold
pKd (FRMPD2_1, Q68DX3; [3]): below the threshold
pKd (DLG5_1, Q8TDM6; [3]): 3.48
pKd (GORASP1, Q9BQQ3; [3]): 3.92
pKd (DLG4_3, P78352; [3]): below the threshold
pKd (HTRA1, Q92743; [3]): 4.15
pKd (HTRA3, P83110; [3]): below the threshold
pKd (PDZD2_2, O15018; [3]): below the threshold
Binder: GQSVDLVFPV [AKIP1, Q9NQ31]
